In assay [1] the target is Human IgG (Sigma-Aldrich Corporation) (human). As to the kind of experiment: Biacore SPR; protein on NTA chip, human IgG injected. Background: Surface plasmon resonance follows binding to a sensor surface in real time, without labels.
Assay [2] shares this target. As to the kind of experiment: Biacore SPR; protein on NTA chip, human IgG injected; reference repeated from Table 2.
Assay [3] has the same target. As to the kind of experiment: human IgG captured on the protein-immobilized Amino-Cellulofine carrier, released with 0.1 M acetic acid, A280.
The target is the same in assay [4]. As to the kind of experiment: Biacore SPR; protein on NTA chip, human IgG injected; reference repeated from Table 3.

The values that follow come from patent US20090299035A1.

As a reminder, the Kd is a measure of binding affinity in units of concentration. A higher Kd goes with weaker binding. In general, koff refers to the first-order rate constant of dissociation. Low readings indicate a long-lived complex, high ones a short-lived complex. As usually defined, the kon is the second-order rate constant of association. High values mean faster complex formation, low ones slower complex formation.

B1: pPG (SEQ ID NO: 2) (designed binder)
chain: AYRLILNGRTLRGETTTEAVDAATAERVFRQYANDNGVDGEWTYDDATRTFTVTERPEVIDASELTPAVTGGGGCADDDDDDHHHHHH
Turning to B1, in assay [1], the Kd was found to be 0.384 nM, the koff was 0.000154 s⁻¹ and the kon came out at 401000 M⁻¹ s⁻¹. In assay [2], this molecule yielded a Kd of 0.384 nM, a koff of 0.000154 s⁻¹ and a kon of 401000 M⁻¹ s⁻¹.

B2: Immobilization carrier SEQ ID NO: 5 (←SEQ ID NO: 2) (designed binder)
chain: AYRLILNGRTLRGETTTEAVDAATAERVFRQYANDNGVDGEWTYDDATRTFTVTERPEVIDASELTPAVTGGGG
modifications: carboxy terminus bound to a primary amino group on Amino-Cellulofine via an amide bond
Turning to B2, the Amount of bound human IgG (mg/ml carrier) in assay [3] stood at 10.

B3: Immobilization carrier SEQ ID NO: 6 (←SEQ ID NO: 3) (designed binder)
chain: ATIRANLIYADGRTQTAEFRGTFEEATAEAYRYADLLARENGRYTVDVADRGYTLNIRFAGGGGG
modifications: carboxy terminus bound to a primary amino group on Amino-Cellulofine via an amide bond
With B3, the Amount of bound human IgG (mg/ml carrier) in assay [3] amounted to 3.

B4: pPL (SEQ ID NO: 3) (designed binder)
chain: ATIRANLIYADGRTQTAEFRGTFEEATAEAYRYADLLARENGRYTVDVADRGYTLNIRFAGGGGGCADDDDDDHHHHHH
In assay [1], B4 registered a Kd of 2.06 nM, a koff of 0.000312 s⁻¹ and a kon of 151000 M⁻¹ s⁻¹. Besides, in assay [4], the Kd worked out at 2.06 nM, the koff came out at 0.000312 s⁻¹ and the kon was determined as 151000 M⁻¹ s⁻¹.

B5: Protein expressed from pGG3T (SEQ ID NO: 25 repeated three times, n = 3) (designed binder)
chain: AYRLILNGRTLRGETTTEAVDAATAERVFRQYANDNGVDGEWTYDDATRTFTVTERPEVIDASELTPAVTPGAYRLILNGRTLRGETTTEAVDAATAERVFRQYANDNGVDGEWTYDDATRTFTVTERPEVIDASELTPAVTPGAYRLILNGRTLRGETTTEAVDAATAERVFRQYANDNGVDGEWTYDDATRTFTVTERPEVIDASELTPAVTPGGGGGCADDDDDDHHHHHH
Regarding B5, in assay [1], the Kd was 0.068 nM, the koff stood at 7.63e-05 s⁻¹ and the kon is 1.12e+06 M⁻¹ s⁻¹.

B6: Protein expressed from pLL3T (SEQ ID NO: 26 repeated three times, n = 3) (designed binder)
chain: ATIRANLIYADGRTQTAEFRGTFEEATAEAYRYADLLARENGRYTVDVADRGYTLNIRFAPGATIRANLIYADGRTQTAEFRGTFEEATAEAYRYADLLARENGRYTVDVADRGYTLNIRFAPGATIRANLIYADGRTQTAEFRGTFEEATAEAYRYADLLARENGRYTVDVADRGYTLNIRFAPGGGGGCADDDDDDHHHHHH
In assay [1], B6 had a Kd of 0.788 nM, a koff of 0.000237 s⁻¹ and a kon of 301000 M⁻¹ s⁻¹.
